Measured values as given in patent US20050244915.
Residue numbers refer to the chain shown, from its start.

Legend:
[1] = target: GST HIF-1α 775-826 N803E, Q16665
[2] = target: T1, His6-HIF-1α 530-698, Q16665
T1 chain: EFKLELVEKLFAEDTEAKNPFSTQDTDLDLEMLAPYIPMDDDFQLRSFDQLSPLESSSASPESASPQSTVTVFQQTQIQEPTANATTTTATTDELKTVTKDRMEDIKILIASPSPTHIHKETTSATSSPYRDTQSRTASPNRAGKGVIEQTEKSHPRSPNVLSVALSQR

[3] = target: GST HIF-1α 775-826 N803D, Q16665
[4] = target: GST HIF-1α 775-826 [GST: P08515]
HIF-1α 775-826, Q16665 = target: T2, HIF-1α 775-826, Q16665
T2 chain: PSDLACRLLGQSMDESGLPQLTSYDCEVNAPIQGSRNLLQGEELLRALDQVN

GST HIF-1α 775-826 N803A = target: T3, GST HIF-1α 775-826 N803A
T3 chain: T2 chain with N29A

[5] = target: T4, His6-HIF-1α 344-503, Q16665
T4 chain: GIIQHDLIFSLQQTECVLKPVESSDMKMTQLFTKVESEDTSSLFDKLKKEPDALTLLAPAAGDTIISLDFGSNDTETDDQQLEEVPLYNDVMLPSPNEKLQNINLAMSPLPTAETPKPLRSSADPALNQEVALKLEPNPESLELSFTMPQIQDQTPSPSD

[6] = target: GST HIF-1α 577-826, Q16665
[7] = target: T5, GST HIF-1α 530-652, Q16665
T5 chain: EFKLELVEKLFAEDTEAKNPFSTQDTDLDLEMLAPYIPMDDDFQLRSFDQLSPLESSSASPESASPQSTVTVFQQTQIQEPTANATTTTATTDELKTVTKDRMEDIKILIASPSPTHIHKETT

[8] = target: GST HIF-1α 775-826 N803Q, Q16665

B1: Factor Inhibiting HIF (FIH), recombinant (protein)
chain: MAATAAEAVASGSGEPREEAGALGPAWDESQLRSYSFPTRPIPRLSQSDPRAEELIENEEPVVLTDTNLVYPALKWDLEYLQENIGNGDFSVYSASTHKFLYYDEKKMANFQNFKPRSNREEMKFHEFVEKLQDIQQRGGEERLYLQQTLNDTVGRKIVMDFLGFNWNWINKQQGKRGWGQLTSNLLLIGMEGNVTPAHYDEQQNFFAQIKGYKRCILFPPDQFECLYPYPVHHPCDRQSQVDFDNPDYERFPNFQNVVGYETVVGPGDVLYIPMYWWHHIESLLNGGITITVNFWYKGAPTPKRIEYPLKAHQKVAIMRNIEKMLGEALGNPQEVGPLLNTMIKGRYN
[1]
  % activity relative to 775-826 peptide: < 0.01%
  CO2 released: < 0.001 nmol
[2]
  % activity relative to 775-826 peptide: < 0.01%
  CO2 released: < 0.001 nmol
[3]
  % activity relative to 775-826 peptide: 7%
  CO2 released: 0.22 nmol
[4]
  % activity relative to 775-826 peptide: 96%
  CO2 released: 2.7 nmol
HIF-1α 775-826, Q16665
  % activity relative to 775-826 peptide: 100%
  CO2 released: 2.8 nmol
  Km(peptide), 2-OG turnover assay: Km(peptide)=10 µM
  Vmax, 2-OG turnover assay: Vmax=0.3 µmol/min/mg
  mass increase of the substrate after reaction (mass spectrometry): an increase in mass of 16Da was observed after HPLC isolation of product
GST HIF-1α 775-826 N803A
  % activity relative to 775-826 peptide: < 0.01%
  CO2 released: < 0.001 nmol
[5]
  % activity relative to 775-826 peptide: < 0.01%
  CO2 released: < 0.001 nmol
[6]
  % activity relative to 775-826 peptide: 67%
  CO2 released: 0.81 nmol
[7]
  % activity relative to 775-826 peptide: 1.8%
  CO2 released: 0.05 nmol
[8]
  % activity relative to 775-826 peptide: < 0.01%
  CO2 released: < 0.001 nmol
